Where a chain is given by its changes, count along the chain named. Names and notes keep the numbering of the source.

The target of data set [1] is T1, human glycogenin 1 (GN1), full length, wild type, glucosylated (human), P46976.
T1 chain: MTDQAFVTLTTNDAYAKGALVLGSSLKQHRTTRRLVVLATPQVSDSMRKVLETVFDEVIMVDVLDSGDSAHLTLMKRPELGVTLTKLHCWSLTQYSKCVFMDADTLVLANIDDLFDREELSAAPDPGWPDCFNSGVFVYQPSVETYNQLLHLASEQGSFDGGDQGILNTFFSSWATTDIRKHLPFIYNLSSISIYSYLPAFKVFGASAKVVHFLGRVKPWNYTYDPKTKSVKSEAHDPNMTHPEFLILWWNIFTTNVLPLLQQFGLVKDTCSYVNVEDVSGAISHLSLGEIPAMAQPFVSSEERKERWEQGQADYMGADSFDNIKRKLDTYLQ
Nature of the data set: negative-stain electron microscopy; purified co-expressed complex at 0.01-0.02 mg/mL in 25 mM HEPES pH 7.5, 150 mM NaCl, 1 mM TCEP, 10% glycerol; uranyl acetate stain; 2D classes and 3D map (C1, ~22 Å). The conditions noted are these: remark: other sources report otherwise.

Data set [2] addresses T2, human glycogenin 1 (GN1), full length, wild type, glucosylated (human, UniProt P46976-2 1-333, auto-glucosylated at tyrosine 195 (heterogeneous glucose chains; smear on SDS-PAGE, PAS positive)).
T2 construct: glycogenin 1, human, encoded by GYG1, cDNA NM 001184720, full length; expected ~37.5 kDa; the C-terminal GN34 region is modelled as residues 300-332, which fits the 333-residue isoform; The isoform is inferred from the printed transcript id, the ~37.5 kDa size and the GN34 numbering; also called GN WT; HsGN; not shown: His6, N-terminal, cleaved
T2 sequence (looked up): T1 chain
Described as above. The note with it: both partners purified.

Data set [3] concerns the target T3, human glycogenin 1 (GN1) Y195F, full length, non-glucosylated (human, UniProt P46976-2 1-333, Y195F).
T3 construct: glycogenin 1, human, encoded by GYG1, cDNA NM 001184720, full length; expected ~37.5 kDa; the C-terminal GN34 region is modelled as residues 300-332, which fits the 333-residue isoform; Cloned in pFL (with untagged GS) and in pFastBac (co-infected with His6-TEV-GS WT or mutants); Both carry an N-terminal His6 tag and a cleavable site, so they are treated as one molecule; also called GN(Y195F); GN …
T3 sequence (looked up): T1 chain with Y195F
Nature of the data set: mass photometry; purified co-expressed complex diluted to 50 nM in 25 mM HEPES pH 7.5, 150 mM NaCl, 1 mM TCEP; Refyn OneMP, 60 s movies. The note with it: both partners purified.

Data set [4] concerns the molecule itself. Briefly: cryo-EM structure; purified GS-GN (WT) complex at 0.36 mg/mL (2.97 μM), 8% glycerol; map at 6.0 Å.
Data set [5] concerns the molecule itself. Nature of the data set: mass photometry; purified co-expressed complex diluted to 50 nM in 25 mM HEPES pH 7.5, 150 mM NaCl, 1 mM TCEP; Refyn OneMP, 60 s movies.

B1: human glycogenin 1 (GN1), full length, wild type, glucosylated, P46976-2 1-333 (enzyme)
chain: T1 chain
modifications: here or on the partner: auto-glucosylated at tyrosine 195 (heterogeneous glucose chains; smear on SDS-PAGE, PAS positive); auto-glucosylated at tyrosine 195 (heterogeneous glucose chains; smear on SDS-PAGE, PAS positive)
A word on the stoichiometry N: it is a count of units in the complex or per binding partner. In data set [1], B1 had a stoichiometry N of 2.

B2: human glycogen synthase 1 (GS1), full length, phosphorylated, co-expressed with GN1 from the pFL vector (enzyme, UniProt P13807 1-737, looked up)
chain: MPLNRTLSMSSLPGLEDWEDEFDLENAVLFEVAWEVANKVGGIYTVLQTKAKVTGDEWGDNYFLVGPYTEQGVRTQVELLEAPTPALKRTLDSMNSKGCKVYFGRWLIEGGPLVVLLDVGASAWALERWKGELWDTCNIGVPWYDREANDAVLFGFLTTWFLGEFLAQSEEKPHVVAHFHEWLAGVGLCLCRARRLPVATIFTTHATLLGRYLCAGAVDFYNNLENFNVDKEAGERQIYHRYCMERAAAHCAHVFTTVSQITAIEAQHLLKRKPDIVTPNGLNVKKFSAMHEFQNLHAQSKARIQEFVRGHFYGHLDFNLDKTLYFFIAGRYEFSNKGADVFLEALARLNYLLRVNGSEQTVVAFFIMPARTNNFNVETLKGQAVRKQLWDTANTVKEKFGRKLYESLLVGSLPDMNKMLDKEDFTMMKRAIFATQRQSFPPVCTHNMLDDSSDPILTTIRRIGLFNSSADRVKVIFHPEFLSSTSPLLPVDYEEFVRGCHLGVFPSYYEPWGYTPAECTVMGIPSISTNLSGFGCFMEEHIADPSAYGIYILDRRFRSLDDSCSQLTSFLYSFCQQSRRQRIIQRNRTERLSDLLDWKYLGRYYMSARHMALSKAFPEHFTYEPNEADAAQGYRYPRPASVPPSPSLSRHSSPHQSEDEEDPRNGPLEEDGERYDEDEEAAKDRRNIRAPEWPRRASCTSSTSGSKRNSVDTATSSSLSTPSEPLSPTSSLGEERN
modifications: phosphoserine mapped by MS/MS at S8, S412, S641, S645, S652, S653, S657, S727, S731; phospho-S641 modelled in the cryo-EM map
notes: glycogen synthase 1 (muscle), human, encoded by GYS1, cDNA NM 002103, full length; In the pFL construct only GN carries the His tag; also called HsGS; GS WT
On to B2, for which the “stoichiometry N” value is 1 GS per GN (4:4) in data set [2], 1 GS per GN (4:4) in data set [3] and 4 in data set [4].

B3: human glycogen synthase 1 (GS1) W18A (enzyme, UniProt P13807 1-737, looked up)
chain: B2 chain with W18A
modifications: phosphorylation at S8, S641 and S641/S645 probed by immunoblot (Fig. 4b)
notes: glycogen synthase 1 (muscle), human, encoded by GYS1, cDNA NM 002103; also called GS W18A; not shown: His6, N-terminal, cleaved
Take B3: in data set [5], the binding result was “binds”.

B4: human glycogen synthase 1 (GS1) Y600A (enzyme, UniProt P13807 1-737, looked up)
chain: B2 chain with Y600A
modifications: phosphorylation at S8, S641 and S641/S645 probed by immunoblot (Fig. 4b)
notes: glycogen synthase 1 (muscle), human, encoded by GYS1, cDNA NM 002103; also called GS Y600A; not shown: His6, N-terminal, cleaved
Consider B4, for which the binding result in data set [5] is reported as “binds”.

B5: human glycogen synthase 1 (GS1) R603A (enzyme, UniProt P13807 1-737, looked up)
chain: B2 chain with R603A
modifications: phosphorylation at S8, S641 and S641/S645 probed by immunoblot (Fig. 4b)
notes: glycogen synthase 1 (muscle), human, encoded by GYS1, cDNA NM 002103; also called GS R603A; not shown: His6, N-terminal, cleaved
As to B5, the binding result in data set [5] is on record as “binds”.

B6: human glycogen synthase 1 (GS1) H610E (enzyme, UniProt P13807 1-737, looked up)
chain: B2 chain with H610E
modifications: phosphorylation at S8, S641 and S641/S645 probed by immunoblot (Fig. 4b)
notes: glycogen synthase 1 (muscle), human, encoded by GYS1, cDNA NM 002103; also called GS H610E; not shown: His6, N-terminal, cleaved
Consider B6, for which the binding result in data set [5] is recorded as “binds”.

The values are drawn from article PMC9188544, “Mechanism of glycogen synthase inactivation and interaction with glycogenin” (Nature Communications, 2022).
